Assay results reported in the supplement of paper PMC5998384.

Tests used:
HeLa Kyoto [1] = assay: melting temperature (median over replicates), in situ; higher = more thermally stable
HeLa Kyoto [2] = assay: solubility change mitosis vs G1/S (difference of NP-40 vs SDS log2 ratios) (log2 ratio difference); higher = more soluble in mitosis
HeLa Kyoto [3] = assay: solubility in G1/S (NP-40 vs SDS abundance) (log2 ratio); higher = more soluble; settings: cell cycle stage: G1/S
HeLa Kyoto [4] = assay: thermal stability score vs G1/S (z-score of summed log2 fold changes over temperatures); higher = more thermally stable than in G1/S
[5] = cell cycle stage: early G1 (4.5 h after nocodazole release)
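Wherever melting temperature (median over replicates), in situ is given: HeLa Kyoto cells synchronized by double thymidine or nocodazole block, proteins quantified by TMT10plex mass spectrometry, three independent biological replicates.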
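Wherever solubility change mitosis vs G1/S (difference of NP-40 vs SDS log2 ratios) is given: synchronized HeLa Kyoto cells (double thymidine block for G1/S, nocodazole release for mitosis), protein amounts in NP-40 versus SDS lysates quantified by mass spectrometry, three biological replicates.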
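Wherever solubility in G1/S (NP-40 vs SDS abundance) is given: HeLa Kyoto cells arrested at G1/S by double thymidine block, proteins quantified by TMT10plex mass spectrometry in mild NP-40 versus SDS extracts, three biological replicates.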
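Wherever thermal stability score vs G1/S (z-score of summed log2 fold changes over temperatures) is given: synchronized HeLa Kyoto cells, proteins quantified by TMT10plex mass spectrometry, three biological replicates, mitosis taken 0.5 h after nocodazole release, G1/S directly after double thymidine block.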

Row | Sequence | melting temperature (HeLa Kyoto [1]; cell cycle stage: G1/S) [°C] | melting temperature (HeLa Kyoto [1]; cell cycle stage: mitosis) [°C] | solubility change mitosis (log2) (HeLa Kyoto [2]) | solubility in G1/S (log2) (HeLa Kyoto [3]) | thermal stability score (HeLa Kyoto [4]; [5]) | thermal stability score (HeLa Kyoto [4]; cell cycle stage: mitosis)
1 | MSELPGDVRAFLREHPSLRLQTDARKVRCILTGHELPCRLPELQVYTRGKKYQRLVRASPAFDYAEFEPHIVPSTKNPHQLFCKLTLRHINKCPEHVLRHTQGRRYQRALCKYEECQKQGVEYVPACLVHRRRRREDQMDGDGPRPREAFWEPTSSDEGGAASDDSMTDLYPPELFTRKDLGSTEDGDGTDDFLTDKEDEKAKPPREKATDEGRRETTVYRGLVQKRGKKQLGSLKKKFKSHHRKPKSFSSCKQPG [SURF2] | 50.7 | 50.3 | 0.0916 | 0.0911 | 0.779 | 0.703
2 | MSENLDNEGPKPMESCGQESSSALSCPTVSVPPAAPAALEEVEKEGAGAATGPGPQPGLYSYIRDDLFTSEIFKLELQNVPRHASFSDVRRFLGRFGLQPHKTKLFGQPPCAFVTFRSAAERDKALRVLHGALWKGRPLSVRLARPKADPMARRRRQEGESEPPVTRVADVVTPLWTVPYAEQLERKQLECEQVLQKLAKEIGSTNRALLPWLLEQRHKHNKACCPLEGVRPSPQQTEYRNKCEFLVGVGVDGEDNTVGCRLGKYKGGTCAVAAPFDTVHIPEATKQVVKAFQEFIRSTPYSAYDPETYTGHWKQLTVRTSRRHQAMAIAYFHPQKLSPEELAELKTSLAQHFTAGPGRASGVTCLYFVEEGQRKTPSQEGLPLEHVAGDRCIHEDLLGLTFRISPHAFFQVNTPAAEVLYTVIQDWAQLDAGSMVLDVCCGTGTIGLALARKVKRVIGVELCPEAVEDARVNAQDNELSNVEFHCGRAEDLVPTLVSRLASQHLVAILDPPRAGLHSKVILAIRRAKNLRRLLYVSCNPRAAMGNFVDLCRAPSNRVKGIPFRPVKAVAVDLFPQTPHCEMLILFERVEHPNGTGVLGPHSPPAQPTPGPPDNTLQETGTFPSS [TRMT2A] | 48.9 | 49.8 | 0.169 | -0.136 | 2.34 | 3.51
3 | MSENSSDSDSSCGWTVISHEGSDIEMLNSVTPTDSCEPAPECSSLEQEELQALQIEQGESSQNGTVLMEETAYPALEETSSTIEAEEQKIPEDSIYIGTASDDSDIVTLEPPKLEEIGNQEVVIVEEAQSSEDFNMGSSSSSQYTFCQPETVFSSQPSDDESSSDETSNQPSPAFRRRRARKKTVSASESEDRLVAEQETEPSKELSKRQFSSGLNKCVILALVIAISMGFGHFYGTIQIQKRQQLVRKIHEDELNDMKDYLSQCQQEQESFIDYKSLKENLARCWTLTEAEKMSFETQKTNLATENQYLRVSLEKEEKALSSLQEELNKLREQIRILEDKGTSTELVKENQKLKQHLEEEKQKKHSFLSQRETLLTEAKMLKRELERERLVTTALRGELQQLSGSQLHGKSDSPNVYTEKKEIAILRERLTELERKLTFEQQRSDLWERLYVEAKDQNGKQGTDGKKKGGRGSHRAKNKSKETFLGSVKETFDAMKNSTKEFVRHHKEKIKQAKEAVKENLKKFSDSVKSTFRHFKDTTKNIFDEKGNKRFGATKEAAEKPRTVFSDYLHPQYKAPTENHHNRGPTMQNDGRKEKPVHFKEFRKNTNSKKCSPGHDCRENSHSFRKACSGVFDCAQQESMSLFNTVVNPIRMDEFRQIIQRYMLKELDTFCHWNELDQFINKFFLNGVFIHDQKLFTDFVNDVKDYLRNMKEYEVDNDGVFEKLDEYIYRHFFGHTFSPPYGPRSVYIKPCHYSSL [CCPG1] | 53.6 | 53.6 | -0.0492 | -0.321 | 1.39 | 2.71
4 | MSESSSKSSQPLASKQEKDGTEKRGRGRPRKQPPVSPGTALVGSQKEPSEVPTPKRPRGRPKGSKNKGAAKTRKTTTTPGRKPRGRPKKLEKEEEEGISQESSEEEQ [HMGA1] |  | 57.6 | 1.62 | 0.583 | -6.52 | -8.11
5 | MSEVKSRKKSGPKGAPAAEPGKRSEGGKTPVARSSGGGGWADPRTCLSLLSLGTCLGLAWFVFQQSEKFAKVENQYQLLKLETNEFQQLQSKISLISEKWQKSEAIMEQLKSFQIIAHLKRLQEEINEVKTWSNRITEKQDILNNSLTTLSQDITKVDQSTTSMAKDVGLKITSVKTDIRRISGLVTDVISLTDSVQELENKIEKVEKNTVKNIGDLLSSSIDRTATLRKTASENSQRINSVKKTLTELKSDFDKHTDRFLSLEGDRAKVLKTVTFANDLKPKVYNLKKDFSRLEPLVNDLTLRIGRLVTDLLQREKEIAFLSEKISNLTIVQAEIKDIKDEIAHISDMN [IKBIP] | 54.1 | 55.2 | 0.165 | 0.751 | 2.64 | 4.37
6 | MSEWMKKGPLEWQDYIYKEVRVTASEKNEYKGWVLTTDPVSANIVLVNFLEDGSMSVTGIMGHAVQTVETMNEGDHRVREKLMHLFTSGDCKAYSPEDLEERKNSLKKWLEKNHIPITEQGDAPRTLCVAGVLTIDPPYGPENCSSSNEIILSRVQDLIEGHLTASQ [GEMIN6] | 53.6 | 52.3 | 0.0835 | 0.271 | -0.4 | -2.06
